# In patent US12668821B2, “Enzymatic production of glucaric acid from glucuronic acid” (THE GOVERNING COUNCIL OF THE UNIVERSITY OF TORONTO, priority 2019, dated 2026):
# Substitutions are numbered along the chain they refer to. Numbers in names are those of the source. Entries after “also recorded” stand apart in the source; their conditions may differ.
# B1: N388S: GOOX variant with N388S relative to SEQ ID NO: 1 (protein, listed as Sarocladium strictum)
# chain: NSINACLAAADVEFHEEDSEGWEMDGTAFNLRVDYDPVAIAIPRSTEDIAAAVQCGLDAGVQISAKGGGHSYGSYGFGGEDGHLMLELDRMYRVSVDDDNVATIQGGARLGYTALELLDQGNRALTHGTCPAVGIGGHVLGGGYGFATHTHGLTLDWLVGATVVLADASIVHVSKTENADLFWALRGGGGGFAIVSEFEFNTFEAPEIITTYQVTTTWNRKQHVAGLKALQDWAENTMPRELSMRLEINANALNWEGNYFGNAKDLKKVLQPIMKKAGGKSTISKLVETDWYGQINTYLYGADLNITYNYDVHEYFYANSLTAPRLSDEAISAFVDYKFDNSSVRPGRGWWIQWDFHGGKNSALASHSNDETAYAHRDQLWLWQFYDSIYDYENNTSPYPESGFEFMQGFVATIEDTLPEDRKGKYFNYADTTLDKEEAQKLYWRGNLEKLQAIKAKYDPEDVFGNVVSVEPIA
# modifications: (1)..(206) FAD-binding domain; (207)..(474) substrate-binding domain
# B2: wtGOOX: Wild-type gluco-oligosaccharide oxidase from Sarocladium strictum, SEQ ID NO: 1, with C-terminal myc-tag and 6xHis-tag (protein, listed as Sarocladium strictum)
# chain: B1 chain with S388N
# modifications: C-terminal myc-tag and 6xHis-tag; (1)..(206) FAD-binding domain; (207)..(474) substrate-binding domain
# B3: Q384A: GOOX variant with Q384A relative to SEQ ID NO: 1 (protein, listed as Sarocladium strictum)
# chain: B1 chain with Q384A, S388N
# modifications: (1)..(206) FAD-binding domain; (207)..(474) substrate-binding domain
# B4: W351F: GOOX variant with W351F relative to SEQ ID NO: 1 (protein, listed as Sarocladium strictum)
# chain: B1 chain with W351F, S388N
# modifications: (1)..(206) FAD-binding domain; (207)..(474) substrate-binding domain
# B5: E247A: GOOX variant with E247A relative to SEQ ID NO: 1 (protein, listed as Sarocladium strictum)
# chain: B1 chain with E247A, S388N
# modifications: (1)..(206) FAD-binding domain; (207)..(474) substrate-binding domain
# B6: E314A: GOOX variant with E314A relative to SEQ ID NO: 1 (protein, listed as Sarocladium strictum)
# chain: B1 chain with E314A, S388N
# modifications: (1)..(206) FAD-binding domain; (207)..(474) substrate-binding domain
# B7: Y72A: GOOX variant with Y72A relative to SEQ ID NO: 1 (protein, listed as Sarocladium strictum)
# chain: B1 chain with Y72A, S388N
# modifications: (1)..(206) FAD-binding domain; (207)..(474) substrate-binding domain
# B8: Q384N: GOOX variant with Q384N relative to SEQ ID NO: 1 (protein, listed as Sarocladium strictum)
# chain: B1 chain with Q384N, S388N
# modifications: (1)..(206) FAD-binding domain; (207)..(474) substrate-binding domain
# B9: Y72F: GOOX variant with Y72F relative to SEQ ID NO: 1 (protein, listed as Sarocladium strictum)
# chain: B1 chain with Y72F, S388N
# modifications: (1)..(206) FAD-binding domain; (207)..(474) substrate-binding domain
# B10: Q353A: GOOX variant with Q353A relative to SEQ ID NO: 1 (protein, listed as Sarocladium strictum)
# chain: B1 chain with Q353A, S388N
# modifications: (1)..(206) FAD-binding domain; (207)..(474) substrate-binding domain
# B11: N388S-V38A: GOOX variant with N388S and V38A relative to SEQ ID NO: 1 (protein, listed as Sarocladium strictum)
# chain: B1 chain with V38A
# modifications: (1)..(206) FAD-binding domain; (207)..(474) substrate-binding domain
# B12: Q353N: GOOX variant with Q353N relative to SEQ ID NO: 1 (protein, listed as Sarocladium strictum)
# chain: B1 chain with Q353N, S388N
# modifications: (1)..(206) FAD-binding domain; (207)..(474) substrate-binding domain
# B13: Y300N: GOOX variant with Y300N relative to SEQ ID NO: 1 (protein, listed as Sarocladium strictum)
# chain: B1 chain with Y300N, S388N
# modifications: (1)..(206) FAD-binding domain; (207)..(474) substrate-binding domain
# B14: W351A: GOOX variant with W351A relative to SEQ ID NO: 1 (protein, listed as Sarocladium strictum)
# chain: B1 chain with W351A, S388N
# modifications: (1)..(206) FAD-binding domain; (207)..(474) substrate-binding domain
# Legend:
# [1] = Degradation of MeGlcA by H2O2 (HPAEC-PAD); format: physicochemical; details: up to 100 mM H2O2, 50 mM Tris pH 8.0, 40° C., 16 h
# Procedure: FIG. 10: HPAEC-PAD analyses of H2O2 effects on AxyAgu115A activity and MeGlcA degradation.
# AxyAgu115A (10 μg/mL) was incubated with 1% glucuronoxylan in 50 mM Tris buffer pH 8.0 in the presence of various H2O2 concentrations (0.01-100 mM). MeGlcA (1 mM) was also incubated with the same H2O2 concentrations. The reactions were kept in the dark at 40° C. for 16 h in a thermomixer (Eppendorf, USA). Catalase (200 μg/mL) was then added, and the reactions were kept incubating for another 30 min to remove H2O2 before HPAEC-PAD analysis.
# Even at 200 mM H2O2, GOOX-Y300A retained more than 50% of its activity on glucose and 100% of its activity on cellobiose (Vuong et al., 2016).
# [2] = Activity screening of GOOX variants and glucose oxidase on MeGlcA; format: biochemical; details: for nmol oxidized MeGlcA Mean: enzyme 16 nM, 37° C., 1 mM MeGlcA (FIG. 11 legend; b102 says 10 mM), 100 mM Tris pH 8.0 (GOOX variants) or 50 mM sodium acetate pH 5.0 (GO)
# Procedure: (§1) FIG. 11: Activity screening of GOOX variants and glucose oxidase (GO) on GlcA and MeGlcA substrates. The enzymes (16 nM) were assayed at 37° C. with 10 mM GlcA and 1 mM MeGlcA in 100 mM Tris buffer pH 8.0 (for GOOX variants) or 50 mM sodium acetate pH 5.0 (for GO). The dotted line indicates the activity of GOOX-VN for MeGlcA for ease of comparison. “CtCBM22A-wtGOOX” and “CtCBM22A-Y300A” represent fusion proteins where the C terminus of the xylan-binding protein CtCBM22A (described in Vuong and Master, 2014) is fused to the N terminus GOOX.
# (§2) The specific activity of GOOX-Y300A (16 nM) on MeGlcA and GlcA (1 mM) was measured in 50 mM Tris buffer pH 8.0 at 40° C. The amount of methyl glucaric acid was determined by measuring the release of H2O2 using a previously published colorimetric assay (Lin et al., 1991). The kinetics of GOOX-Y300A on these acidic sugars were measured at the same condition, but using up to 60 mM MeGlcA and GlcA and in 0.3 M Tris buffer pH 8.0.
# [3] = Activity screening of GOOX variants and glucose oxidase on GlcA; format: biochemical; details: for nmol oxidized GlcA Mean: enzyme 16 nM, 37° C., 10 mM GlcA (FIG. 11 legend; b102 says 100 mM), 100 mM Tris pH 8.0 (GOOX variants) or 50 mM sodium acetate pH 5.0 (GO); for activity with GlcA as substrate (in words): screening, compared with wtGOOX
# Procedure: as §1, §2
Molecule,loss of MeGlcA in the presence of H2O2 [1],nmol oxidized MeGlcA Mean [2],"activity with MeGlcA as substrate (in words) ([2]; screening, compared with wtGOOX)",nmol oxidized GlcA Mean [3],activity with GlcA as substrate (in words) [3]
"CO[C@@H]([C@H](O)[C@@H](O)C=O)[C@H](O)C(=O)O [MeGlcA, 4-O-methyl D-glucuronic acid]",no loss of MeGlcA; also recorded: did not cause a loss of MeGlcA,–,–,–,–
B1,–,1.4023 nmol,improved activity over wtGOOX,-0.02652 nmol,improved activity over wtGOOX
B2,–,0.9032 nmol,–,-0.04572 nmol,–
B3,–,0.4569 nmol,–,-0.00914 nmol,–
B4,–,0.08201 nmol,–,-0.04298 nmol,–
B5,–,0.724 nmol,–,0.05669 nmol,improved activity over wtGOOX
B6,–,1.0403 nmol,–,-0.03292 nmol,–
B7,–,0.8997 nmol,–,-0.01097 nmol,–
B8,–,0.683 nmol,–,-0.02195 nmol,–
B9,–,0.6279 nmol,–,0.05395 nmol,improved activity over wtGOOX
B10,–,0.594 nmol,–,0.05212 nmol,improved activity over wtGOOX
B11,–,0.9559 nmol,–,0.02835 nmol,–
B12,–,0.4522 nmol,–,0.09327 nmol,improved activity over wtGOOX
B13,–,0.08201 nmol,–,-0.03749 nmol,–
B14,–,0.7166 nmol,–,0.06492 nmol,improved activity over wtGOOX
